Source: the Human Domainome abundance scans (Beltran et al. 2025)
± gives the uncertainty stated by the source.

B1: TOX high mobility group box family member 3, residues 256 to 323; numbered along this chain, O15405 (parent)
chain: QKPVSAYALFFRDTQAAIKGQNPNATFGEVSKIVASMWDSLGEEQKQVYKRKTEAAKKEYLKALAAYR

Variants of: B1
Experiment: abundance fitness (aPCA) (normalised: wild type 0, dead -1); higher = more abundant; growth selection in yeast, the domain comes from the species named
Details: Homo sapiens

Variant | abundance fitness
QKPVSAYALFFRDTQAAIKGQNPNATFGRVSKIVASMWDSLGEEQKQVYKRKTEAAKKEYLKALAAYR | -0.558 ± 0.068
QKPVSAYALFFRDTQAAIKGQNPNATFGGVSKIVASMWDSLGEEQKQVYKRKTEAAKKEYLKALAAYR | -0.959 ± 0.22
QKPVSAYALFFRDTQAAIKGQNPNATFGSVSKIVASMWDSLGEEQKQVYKRKTEAAKKEYLKALAAYR | -0.341 ± 0.067
QKPVSAYALFFRDTQAAIKGQNPNATFGEVSKIVASMWDSLGEEQKQVYKRKTEAAKKEYLKALARYR | 0.056 ± 0.05
QKPVSAYALFFRDTQAAIKGQNPNATFGEVSKIVASMWDSLGEEQKQVYKRKTEAAKKEYLKALACYR | -0.038 ± 0.11
QKPVSAYALFFRDTQAAIKGQNPNATFGEVSKIVASMWDSLGEEQKQVYKRKTEAAKKEYLKALAWYR | -0.103 ± 0.067
QKPVSAYALFFRDTQAAIKGQNPNATFGEVSKIVASMWDSLGEEQKQVYKRKTEAANKEYLKALAAYR | 0.042 ± 0.077
QKPVSAYALFFRDTQAAIKGQNPNATFGEVSKIVASMWDSLGEEQKQVYKRKTEAAVKEYLKALAAYR | -0.252 ± 0.057
QKPVSAYALFFRDNQAAIKGQNPNATFGEVSKIVASMWDSLGEEQKQVYKRKTEAAKKEYLKALAAYR | -0.278 ± 0.14
QKPVSAYALFFRDTQAAIKGQNPNACFGEVSKIVASMWDSLGEEQKQVYKRKTEAAKKEYLKALAAYR | -0.275 ± 0.064
QKPVSAYALFFRDTQAAIKGQNPNANFGEVSKIVASMWDSLGEEQKQVYKRKTEAAKKEYLKALAAYR | 0.03 ± 0.079
QKPVSAYSLFFRDTQAAIKGQNPNATFGEVSKIVASMWDSLGEEQKQVYKRKTEAAKKEYLKALAAYR | 0.002 ± 0.065
QKPVSAYELFFRDTQAAIKGQNPNATFGEVSKIVASMWDSLGEEQKQVYKRKTEAAKKEYLKALAAYR | -0.376 ± 0.18
QKPVSAYALFFRDTQAAIKGQNPNATFGEVSKIVASMWDSLGEEQKQVYKRKTEAAKKEYLKALKAYR | 0.036 ± 0.081
QKPVSAYALFFRDTQAAIKGQNPNATFGEVSKIVASMWDSLGEEQKQVYKRKTEAAKKEYLKALSAYR | 0.042 ± 0.069
QKPVSAYALFIRDTQAAIKGQNPNATFGEVSKIVASMWDSLGEEQKQVYKRKTEAAKKEYLKALAAYR | -0.676 ± 0.43
QKPVSAYALFWRDTQAAIKGQNPNATFGEVSKIVASMWDSLGEEQKQVYKRKTEAAKKEYLKALAAYR | -0.134 ± 0.088
QKPVSAYALFFRDTQAAIKGQNPNATDGEVSKIVASMWDSLGEEQKQVYKRKTEAAKKEYLKALAAYR | 0.133 ± 0.068
QKPVSAYALFFRDTQAAIKGQNPNATQGEVSKIVASMWDSLGEEQKQVYKRKTEAAKKEYLKALAAYR | 0.093 ± 0.079
QKPVSAYALFFRDTQAAIKGQNPNATKGEVSKIVASMWDSLGEEQKQVYKRKTEAAKKEYLKALAAYR | 0.258 ± 0.061

Variant | abundance fitness
QKPVSAYALFFRDTQAAIKGQNPNATYGEVSKIVASMWDSLGEEQKQVYKRKTEAAKKEYLKALAAYR | 0.029 ± 0.11
QKPVSAYAVFFRDTQAAIKGQNPNATFGEVSKIVASMWDSLGEEQKQVYKRKTEAAKKEYLKALAAYR | -0.224 ± 0.077
QKPVSAYAEFFRDTQAAIKGQNPNATFGEVSKIVASMWDSLGEEQKQVYKRKTEAAKKEYLKALAAYR | 0.262 ± 0.16
QKPVSAYALFFRDTQAAIKGQNPNATFGEVSKIVASMWDSLGEEQKQVYKRQTEAAKKEYLKALAAYR | -0.291 ± 0.071
QKKVSAYALFFRDTQAAIKGQNPNATFGEVSKIVASMWDSLGEEQKQVYKRKTEAAKKEYLKALAAYR | -0.035 ± 0.072
QKPVSAYALFFRDTQAAIKGQNPNATFGEVSKIRASMWDSLGEEQKQVYKRKTEAAKKEYLKALAAYR | -1.01 ± 0.14
QKPVSAYALFFRDTKAAIKGQNPNATFGEVSKIVASMWDSLGEEQKQVYKRKTEAAKKEYLKALAAYR | -0.109 ± 0.091
QKPVSAYALFFRDTLAAIKGQNPNATFGEVSKIVASMWDSLGEEQKQVYKRKTEAAKKEYLKALAAYR | -0.13 ± 0.084
QKPVSAYALFFRDTPAAIKGQNPNATFGEVSKIVASMWDSLGEEQKQVYKRKTEAAKKEYLKALAAYR | -1.08 ± 0.19
QKPVSAYALFFRDTQAAINGQNPNATFGEVSKIVASMWDSLGEEQKQVYKRKTEAAKKEYLKALAAYR | -0.557 ± 0.12
QKPVSAYALFFRDTQAAISGQNPNATFGEVSKIVASMWDSLGEEQKQVYKRKTEAAKKEYLKALAAYR | -0.127 ± 0.06
QKPVSAYALFFRDTQAAIFGQNPNATFGEVSKIVASMWDSLGEEQKQVYKRKTEAAKKEYLKALAAYR | -0.139 ± 0.099
QKPVSAYALFFRDTQAAIEGQNPNATFGEVSKIVASMWDSLGEEQKQVYKRKTEAAKKEYLKALAAYR | -0.256 ± 0.21
QKPVSAYALFFRDTQAAIKGQNPNATFGEVSKIVAHMWDSLGEEQKQVYKRKTEAAKKEYLKALAAYR | -0.065 ± 0.11
QKPVSAYALFFRDTQAAIKGQNPNATFGEVSKIVASMWDDLGEEQKQVYKRKTEAAKKEYLKALAAYR | -0.223 ± 0.11
QKPVSAYALFFRDTQAAIKGQNPNATFGEVSKIVESMWDSLGEEQKQVYKRKTEAAKKEYLKALAAYR | -0.015 ± 0.078
QKPVSAYALFFRDTQAAIKGQNPNATFGEVSKIVWSMWDSLGEEQKQVYKRKTEAAKKEYLKALAAYR | -0.16 ± 0.076
QKPVSAYALFFRDTQAAIKGQNPNATFGEVSKIVHSMWDSLGEEQKQVYKRKTEAAKKEYLKALAAYR | 0.001 ± 0.1
QKPVSAYALFFRDTQLAIKGQNPNATFGEVSKIVASMWDSLGEEQKQVYKRKTEAAKKEYLKALAAYR | -0.178 ± 0.059
